According to patent US20120077957A1 (PALATIN TECHNOLOGIES, published 2012):
Numbered stars: 1 amine (or outer) side, 2 acyl side, 3 side chain; on linkers, the order of the positions; unused ones are H or OH. Bridge positions count the residues as written; N and C are the ends. Square brackets hold non-standard residues; d marks the D form. * marks the point of attachment. Pro(trans-4-NH2) = O=C([C@@H]1C[C@@H](N[*:3])CN1[*:1])[*:2]; Met(O2) = CS(=O)(=O)CC[C@H](N)C(=O)O; Hyp = O=C(O)[C@@H]1C[C@@H](O)CN1; Orn = NCCC[C@H](N)C(=O)O; Dab = NCC[C@H](N)C(=O)O; NHcPr = C1CC1N*

B1: Peptide No. 2: Ac-Nle-cyclo(Glu-His-D-Phe-Arg-Trp-Orn)-NH2 (peptide)
peptide: XEHFRWX
modifications: N-terminal acetyl; Nle at 1; D-Phe at 4; Orn at 7; side-chain lactam Glu2-Orn7; C-terminal amide (-NH2)
B2: Asp...Lys analog of peptide No. 13: Ac-Arg-cyclo(Asp-Met(O2)-D-Phe-Arg-Trp-Lys)-NH2 (peptide)
peptide: Ac-RD[Met(O2)][dF]RWK-NH2
modifications: lactam 2-7
notes: also called Peptide Structure (Asp...Lys) in the row of No. 13
B3: Asp...Lys analog of peptide No. 19: Ac-Arg-cyclo(Asp-Gln-D-Phe-Arg-Trp-Lys)-NH-cycProp (peptide)
peptide: Ac-RDQ[dF]RWK-NHcPr
modifications: lactam 2-7
notes: also called Peptide Structure (Asp...Lys) in the row of No. 19
B4: Asp...Lys analog of peptide No. 16: Ac-Arg-cyclo(Asp-Lys-D-Phe-Arg-Trp-Lys)-NH2 (peptide)
peptide: Ac-RDK[dF]RWK-NH2
modifications: lactam 2-7
notes: also called Peptide Structure (Asp...Lys) in the row of No. 16
B5: Asp...Lys analog of peptide No. 14: Ac-Arg-cyclo(Asp-Hyp-D-Phe-Arg-Trp-Lys)-NH2 (peptide)
peptide: Ac-RD[Hyp][dF]RWK-NH2
modifications: lactam 2-7
notes: also called Peptide Structure (Asp...Lys) in the row of No. 14
B6: Asp...Lys analog of peptide No. 32: Ac-Arg-cyclo(Asp-Pro(4R-NH2)-D-Phe-Arg-Trp-Lys)-NH2 (peptide)
peptide: Ac-RD[Pro(trans-4-NH2)][dF]RWK-NH2
modifications: lactam 2-7
notes: also called Peptide Structure (Asp...Lys) in the row of No. 32
B7: Asp...Lys analog of peptide No. 20: Ac-Arg-cyclo(Asp-Asn-D-Phe-Arg-Trp-Lys)-OH (peptide)
peptide: Ac-RDN[dF]RWK-OH
modifications: lactam 2-7
notes: also called Peptide Structure (Asp...Lys) in the row of No. 20
B8: Asp...Lys analog of peptide No. 11: Ac-Arg-cyclo(Asp-Gln-D-Phe-Arg-Trp-Lys)-OH (peptide)
peptide: Ac-RDQ[dF]RWK-OH
modifications: lactam 2-7
notes: also called Peptide Structure (Asp...Lys) in the row of No. 11
B9: Asp...Lys analog of peptide No. 18: Ac-Arg-cyclo(Asp-Dab(Acetyl)-D-Phe-Arg-Trp-Lys)-NH2 (peptide)
peptide: Ac-RD[Dab](Ac)[dF]RWK-NH2
modifications: lactam 2-7
SMILES: CC(=O)NCC[C@@H]1NC(=O)[C@@H](NC(=O)[C@H](CCCNC(=N)N)NC(C)=O)CC(=O)NCCCC[C@@H](C(N)=O)NC(=O)[C@H](Cc2c[nH]c3ccccc23)NC(=O)[C@H](CCCNC(=N)N)NC(=O)[C@@H](Cc2ccccc2)NC1=O
B10: Asp...Lys analog of peptide No. 21: Ac-cyclo(Asp-Gln-D-Phe-Arg-Trp-Lys)-NH2 (peptide)
peptide: Ac-DQ[dF]RWK-NH2
modifications: lactam 1-6
SMILES: CC(=O)N[C@H]1CC(=O)NCCCC[C@@H](C(N)=O)NC(=O)[C@H](Cc2c[nH]c3ccccc23)NC(=O)[C@H](CCCNC(=N)N)NC(=O)[C@@H](Cc2ccccc2)NC(=O)[C@H](CCC(N)=O)NC1=O
notes: also called Peptide Structure (Asp...Lys) in the row of No. 21

Target: T1, human melanocortin-4 receptor (recombinant hMC4-R) (human, UniProt P32245 1-332)
T1 sequence (P32245 whole entry): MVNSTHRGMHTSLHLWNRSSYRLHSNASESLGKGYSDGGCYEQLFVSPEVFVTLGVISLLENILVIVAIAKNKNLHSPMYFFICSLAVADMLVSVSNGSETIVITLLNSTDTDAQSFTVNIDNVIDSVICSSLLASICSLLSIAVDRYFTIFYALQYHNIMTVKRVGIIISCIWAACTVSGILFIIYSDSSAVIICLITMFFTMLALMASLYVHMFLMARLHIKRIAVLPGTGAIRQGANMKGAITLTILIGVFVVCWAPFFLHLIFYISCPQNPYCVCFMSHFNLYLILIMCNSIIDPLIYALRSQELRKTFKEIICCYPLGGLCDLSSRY
Test: cell-based or functional assay

| Ec50 (nM), cAMP [nM] | Emax (%), cAMP [%] | Binder |
| --- | --- | --- |
| 0.1 | 93 | B1 |
|  | 92 | Ac-RE[Orn][dF]RW[Orn]-OH (lactam 2-7) [Peptide No. 7: Ac-Arg-cyclo(Glu-Orn-D-Phe-Arg-Trp-Orn)-OH] |
|  | 91 | Ac-RDH[dF]RWK-OH (lactam 2-7) [Asp...Lys analog of peptides No. 3 and No. 37: Ac-Arg-cyclo(Asp-His-D-Phe-Arg-Trp-Lys)-OH] |
| 35 | 29 | B2 |
| 9 | 79 | B3 |
|  | 97 | B4 |
| 27 | 39 | B5 |
|  | 61 | B6 |
|  | 68 | Ac-RDR[dF]RWK-NH2 (lactam 2-7) [Asp...Lys analog of peptide No. 10: Ac-Arg-cyclo(Asp-Arg-D-Phe-Arg-Trp-Lys)-NH2] |
|  | 75 | Ac-RDR[dF]RWK-OH (lactam 2-7) [Asp...Lys analog of peptide No. 9: Ac-Arg-cyclo(Asp-Arg-D-Phe-Arg-Trp-Lys)-OH] |
| 17 | 85 | Ac-RDQ[dF]RWK-NH2 (lactam 2-7) [Asp...Lys analog of peptides No. 12 and No. 44: Ac-Arg-cyclo(Asp-Gln-D-Phe-Arg-Trp-Lys)-NH2] |
| 81 | 73 | B7 |
| 19 | 80 | B8 |
|  | 91 | Ac-REQ[dF]RW[Orn]-NHcPr (lactam 2-7) [Peptide No. 19: Ac-Arg-cyclo(Glu-Gln-D-Phe-Arg-Trp-Orn)-NH-cycProp] |
| 0.3 | 94 | Ac-RE[Dab][dF]RW[Orn]-NH2 (lactam 2-7) [Peptide No. 6: Ac-Arg-cyclo(Glu-Dab-D-Phe-Arg-Trp-Orn)-NH2] |
| 0.3 | 91 | Ac-RD[Dab][dF]RWK-NH2 (lactam 2-7) [Asp...Lys analog of peptides No. 6 and No. 43: Ac-Arg-cyclo(Asp-Dab-D-Phe-Arg-Trp-Lys)-NH2] |
|  | 69 | B9 |
| 148 | 35 | B10 |
| 0.8 | 79 | Ac-RD[Orn][dF]RWK-NH2 (lactam 2-7) [Asp...Lys analog of peptide No. 8: Ac-Arg-cyclo(Asp-Orn-D-Phe-Arg-Trp-Lys)-NH2] |
|  | 75 | Ac-RE[Dab](Ac)[dF]RW[Orn]-NH2 (lactam 2-7) [Peptide No. 18: Ac-Arg-cyclo(Glu-Dab(Acetyl)-D-Phe-Arg-Trp-Orn)-NH2] |
| 532 | 62 | Ac-RD[Orn](Ac)[dF]RWK-NH2 (lactam 2-7) [Asp...Lys analog of peptide No. 33: Ac-Arg-cyclo(Asp-Orn(Acetyl)-D-Phe-Arg-Trp-Lys)-NH2] |
|  | 96 | Ac-REQ[dF]RW[Orn]-NH2 (lactam 2-7) [Peptide No. 12: Ac-Arg-cyclo(Glu-Gln-D-Phe-Arg-Trp-Orn)-NH2] |

Target: T1, human melanocortin-4 receptor …
Test: cell-based or functional assay
Remark: another data set of the same source

| Emax (%), cAMP [%] | Ec50 (nM), cAMP [nM] | Binder |
| --- | --- | --- |
| 91 |  | Ac-RDH[dF]RWK-OH (lactam 2-7) [Asp...Lys analog of peptides No. 3 and No. 37: Ac-Arg-cyclo(Asp-His-D-Phe-Arg-Trp-Lys)-OH] |
| 85 | 17 | Ac-RDQ[dF]RWK-NH2 (lactam 2-7) [Asp...Lys analog of peptides No. 12 and No. 44: Ac-Arg-cyclo(Asp-Gln-D-Phe-Arg-Trp-Lys)-NH2] |
| 91 | 0.3 | Ac-RD[Dab][dF]RWK-NH2 (lactam 2-7) [Asp...Lys analog of peptides No. 6 and No. 43: Ac-Arg-cyclo(Asp-Dab-D-Phe-Arg-Trp-Lys)-NH2] |

Target: T1, human melanocortin-4 receptor …
Test: competition with labelled NDP-α-MSH ([I125] or Eu), hMC4-R HEK-293 membranes
Procedure: After incubation for 60 minutes at 37° C., the assay mixture was filtered and the membranes washed three times with ice-cold buffer. Filters were dried and counted in a gamma counter for bound radioactivity. […] Maximal specific binding (100%) was defined as the difference in radioactivity (cpm) bound to cell membranes in the absence and presence of 1 μM NDP-α-MSH. […] Ki values for test peptides of the present invention were determined using Graph-Pad Prism® curve-fitting software.
After incubation for 90 minutes at 37° C., the reaction was stopped by filtration over AcroWell 96-well filter plates (Pall Life Sciences). The filter plates were washed 4 times with 200 μL of ice-cold phosphate-buffered saline. DELFIA Enhancement solution (PerkinElmer Life Sciences) was added to each well. The plates were incubated on a shaker for 15 minutes and read at 340 nm excitation and 615 nm emission wavelengths. Each assay was conducted in duplicate and mean values were utilized. Ki values were determined by curve-fitting with Graph-Pad Prism® software using a one-site fixed-slope competition binding model.

| Ki [nM] | Binder |
| --- | --- |
| 0.1 | B1 |
| 7 | B2 |
| 64 | B3 |
| 30 | B4 |
| 4 | B5 |
| 5 | B6 |
| 100 | B7 |
| 115 | B8 |
| 99 | B10 |
